These results are taken from paper PMC8280106 (2021).

The labels stand for the following.
B1: extracellular domain of CD147 (CD147^ECD) [human] / Trefoil factor 3 (TFF3), recombinant mature form (residues 22-80) [human] (parent complex)
chain 1: AAGTVFTTVEDLGSKILLTCSLNDSATEVTGHRWLKGGVVLKEDALPGQKTEFKVDSDDQWGEYSCVFLPEPMGTANIQLHGPPRVKAVKSSEHINEGETAMLVCKSESVPPVTDWAWYKITDSEDKALMNGSESRFFVSSSQGRSELHIENLNMEADPGQYRCNGTSSKGSDQAIITLRVRSH
chain 2: EEYVGLSANQCAVPAKDRVDCGYPHVTPKECNNRGCCFDSRIPGVPWCFKPLQEAECTF

The variants in the assay derive from B1. Briefly: SPR (Biacore); value read at end of injection, ~120 s; concentrations not given; read off a plot. In general terms: SPR reads the build-up and loss of mass on a sensor chip optically.
Turning to chain 1 T100A, the response was about 14 Ru.
For chain 1 R145A the value was about 8.7 Ru; for chain 1 R33A, about 2 Ru.
For chain 1 G74A the value was about 4.3 Ru; for chain 1 V110A, about 4.7 Ru.
